Measured values published in publication PMC12416549 (2024).

T1: TNFR1 (Homo sapiens, UniProt P19438)
T1 chain: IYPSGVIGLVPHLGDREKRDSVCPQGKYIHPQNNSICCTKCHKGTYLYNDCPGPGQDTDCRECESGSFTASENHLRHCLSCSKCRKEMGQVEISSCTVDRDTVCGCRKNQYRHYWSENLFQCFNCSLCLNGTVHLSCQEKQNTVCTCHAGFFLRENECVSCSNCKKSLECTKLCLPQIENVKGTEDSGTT


Target: T1, TNFR1
Test: yeast display SC50

| Binder | apparent Kd (screen) [nM] |
| --- | --- |
| L76D (designed binder) SMEEEVEKAAKEYEKKKKEAIEKHLEKLKAKDKEAAERFLKELEEAAKEYAKDEAKTMSEEEAKRRAKKYKEKVLDSELSEEEQKEIKEAEEKLVRTILKYVEEAAK | 1.16 |
| K88G (designed binder) SMEEEVEKAAKEYEKKKKEAIEKHLEKLKAKDKEAAERFLKELEEAAKEYAKDEAKTMSEEEAKRRAKKYKEKVLLSELSEEEQKEIGEAEEKLVRTILKYVEEAAK | 0.49 |
| E14W (designed binder) SMEEEVEKAAKEYWKKKKEAIEKHLEKLKAKDKEAAERFLKELEEAAKEYAKDEAKTMSEEEAKRRAKKYKEKVLLSELSEEEQKEIKEAEEKLVRTILKYVEEAAK | 10.4 |
| Y70R (designed binder) SMEEEVEKAAKEYEKKKKEAIEKHLEKLKAKDKEAAERFLKELEEAAKEYAKDEAKTMSEEEAKRRAKKRKEKVLLSELSEEEQKEIKEAEEKLVRTILKYVEEAAK | 5.31 |
| K11C (designed binder) SMEEEVEKAACEYEKKKKEAIEKHLEKLKAKDKEAAERFLKELEEAAKEYAKDEAKTMSEEEAKRRAKKYKEKVLLSELSEEEQKEIKEAEEKLVRTILKYVEEAAK | 1.69 |
| A35M (designed binder) SMEEEVEKAAKEYEKKKKEAIEKHLEKLKAKDKEMAERFLKELEEAAKEYAKDEAKTMSEEEAKRRAKKYKEKVLLSELSEEEQKEIKEAEEKLVRTILKYVEEAAK | 0.446 |
| K52W (designed binder) SMEEEVEKAAKEYEKKKKEAIEKHLEKLKAKDKEAAERFLKELEEAAKEYAWDEAKTMSEEEAKRRAKKYKEKVLLSELSEEEQKEIKEAEEKLVRTILKYVEEAAK | 5.31 |
| K16N (designed binder) SMEEEVEKAAKEYEKNKKEAIEKHLEKLKAKDKEAAERFLKELEEAAKEYAKDEAKTMSEEEAKRRAKKYKEKVLLSELSEEEQKEIKEAEEKLVRTILKYVEEAAK | 0.335 |
| E89Q (designed binder) SMEEEVEKAAKEYEKKKKEAIEKHLEKLKAKDKEAAERFLKELEEAAKEYAKDEAKTMSEEEAKRRAKKYKEKVLLSELSEEEQKEIKQAEEKLVRTILKYVEEAAK | 1.05 |

Now from value to binder:

| apparent Kd (screen) [nM] | Binder |
| --- | --- |
| 1.86 | I98W (designed binder) SMEEEVEKAAKEYEKKKKEAIEKHLEKLKAKDKEAAERFLKELEEAAKEYAKDEAKTMSEEEAKRRAKKYKEKVLLSELSEEEQKEIKEAEEKLVRTWLKYVEEAAK |
| 0.446 | A105E (designed binder) SMEEEVEKAAKEYEKKKKEAIEKHLEKLKAKDKEAAERFLKELEEAAKEYAKDEAKTMSEEEAKRRAKKYKEKVLLSELSEEEQKEIKEAEEKLVRTILKYVEEEAK |
| 12.5 | E92M (designed binder) SMEEEVEKAAKEYEKKKKEAIEKHLEKLKAKDKEAAERFLKELEEAAKEYAKDEAKTMSEEEAKRRAKKYKEKVLLSELSEEEQKEIKEAEMKLVRTILKYVEEAAK |
| 4.83 | L99H (designed binder) SMEEEVEKAAKEYEKKKKEAIEKHLEKLKAKDKEAAERFLKELEEAAKEYAKDEAKTMSEEEAKRRAKKYKEKVLLSELSEEEQKEIKEAEEKLVRTIHKYVEEAAK |
| 0.446 | L94W (designed binder) SMEEEVEKAAKEYEKKKKEAIEKHLEKLKAKDKEAAERFLKELEEAAKEYAKDEAKTMSEEEAKRRAKKYKEKVLLSELSEEEQKEIKEAEEKWVRTILKYVEEAAK |
